Laboratory results as given in the supplement of paper PMC10567573.

B1: HSP90AB1 (parent)
chain: YHTSQSGDEMTSLSEYVSRMKETQ

Variants of: B1
Assay: protein stability index of a GFP-peptide fusion (GPS, HEK-293T) (PSI 1-6); higher = more stable
Conditions: c terminus: a fixed tail appended
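Also: lentivirally expressed fusions sorted by FACS into six bins by GFP to DsRed ratio, PSI derived from sequencing read proportions per bin multiplied by bin number.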

**Q.** With YHTSQSGCEMTSLSEYVSRMKETQ [D8C] as the variant, how does the protein stability index read?
**A.** 2.58

**Q.** With YHTSQSGYEMTSLSEYVSRMKETQ [D8Y] as the variant, how does the protein stability index read?
**A.** 2.26

**Q.** For YHTSQSGHEMTSLSEYVSRMKETQ [D8H], which protein stability index is on record?
**A.** 2.92

**Q.** With YHTSQSGNEMTSLSEYVSRMKETQ [D8N] as the variant, how does the protein stability index read?
**A.** 3.33

**Q.** With YHTSQSGPEMTSLSEYVSRMKETQ [D8P] as the variant, how does the protein stability index read?
**A.** 3

**Q.** For YHTSQSGKEMTSLSEYVSRMKETQ [D8K], which protein stability index is on record?
**A.** 3.24

**Q.** With YHTSQSGQEMTSLSEYVSRMKETQ [D8Q] as the variant, how does the protein stability index read?
**A.** 3.69

**Q.** Which protein stability index does the source give for YHTSQSGEEMTSLSEYVSRMKETQ [D8E] here?
**A.** 4.24

**Q.** Which protein stability index does the source give for YHTSQSGGEMTSLSEYVSRMKETQ [D8G] here?
**A.** 2.89

**Q.** Which protein stability index does the source give for YHTSQSGFEMTSLSEYVSRMKETQ [D8F] here?
**A.** 3.44

**Q.** Which protein stability index does the source give for YHTSQSGSEMTSLSEYVSRMKETQ [D8S] here?
**A.** 3.77

**Q.** With YHTSQTGDEMTSLSEYVSRMKETQ [S6T] as the variant, how does the protein stability index read?
**A.** 3.46

**Q.** Which protein stability index does the source give for YHTSQVGDEMTSLSEYVSRMKETQ [S6V] here?
**A.** 3.21

**Q.** Which protein stability index does the source give for YHTSQLGDEMTSLSEYVSRMKETQ [S6L] here?
**A.** 3.26

**Q.** Which protein stability index does the source give for YHTSQIGDEMTSLSEYVSRMKETQ [S6I] here?
**A.** 2.98

**Q.** For YHTSQEGDEMTSLSEYVSRMKETQ [S6E], which protein stability index is on record?
**A.** 4.15

**Q.** For YHTSQHGDEMTSLSEYVSRMKETQ [S6H], which protein stability index is on record?
**A.** 2.91

**Q.** With YHTSQWGDEMTSLSEYVSRMKETQ [S6W] as the variant, how does the protein stability index read?
**A.** 1.88

**Q.** Which protein stability index does the source give for YHTSQDGDEMTSLSEYVSRMKETQ [S6D] here?
**A.** 4.53

**Q.** With YHTSQCGDEMTSLSEYVSRMKETQ [S6C] as the variant, how does the protein stability index read?
**A.** 3.22

**Q.** With YHTSQFGDEMTSLSEYVSRMKETQ [S6F] as the variant, how does the protein stability index read?
**A.** 2.54

**Q.** For YHTSQQGDEMTSLSEYVSRMKETQ [S6Q], which protein stability index is on record?
**A.** 2.83

**Q.** Which protein stability index does the source give for YHTSQAGDEMTSLSEYVSRMKETQ [S6A] here?
**A.** 3.54

**Q.** Which protein stability index does the source give for YHTSQKGDEMTSLSEYVSRMKETQ [S6K] here?
**A.** 3.03

**Q.** With YHTSQNGDEMTSLSEYVSRMKETQ [S6N] as the variant, how does the protein stability index read?
**A.** 4.08

**Q.** Which protein stability index does the source give for YHTSQGGDEMTSLSEYVSRMKETQ [S6G] here?
**A.** 3.75

**Q.** Which protein stability index does the source give for YHTSQRGDEMTSLSEYVSRMKETQ [S6R] here?
**A.** 3.56

**Q.** For YHTSQYGDEMTSLSEYVSRMKETQ [S6Y], which protein stability index is on record?
**A.** 2.06

**Q.** For YHTSQPGDEMTSLSEYVSRMKETQ [S6P], which protein stability index is on record?
**A.** 3.02

**Q.** For YHTSQSGDEMHSLSEYVSRMKETQ [T11H], which protein stability index is on record?
**A.** 3.64

**Q.** Which protein stability index does the source give for YHTSQSGDEMKSLSEYVSRMKETQ [T11K] here?
**A.** 4.58

**Q.** For YHTSQSGDEMVSLSEYVSRMKETQ [T11V], which protein stability index is on record?
**A.** 3.68

**Q.** For YHTSQSGDEMGSLSEYVSRMKETQ [T11G], which protein stability index is on record?
**A.** 3.77

**Q.** For YHTSQSGDEMISLSEYVSRMKETQ [T11I], which protein stability index is on record?
**A.** 3.12

**Q.** With YHTSQSGDEMWSLSEYVSRMKETQ [T11W] as the variant, how does the protein stability index read?
**A.** 2.01

**Q.** Which protein stability index does the source give for YHTSQSGDEMFSLSEYVSRMKETQ [T11F] here?
**A.** 2.78

**Q.** With YHTSQSGDEMSSLSEYVSRMKETQ [T11S] as the variant, how does the protein stability index read?
**A.** 3.62

**Q.** With YHTSQSGDEMYSLSEYVSRMKETQ [T11Y] as the variant, how does the protein stability index read?
**A.** 2.74

**Q.** Which protein stability index does the source give for YHTSQSGDEMRSLSEYVSRMKETQ [T11R] here?
**A.** 3.53

**Q.** For YHTSQSGDEMNSLSEYVSRMKETQ [T11N], which protein stability index is on record?
**A.** 3.56

**Q.** For YHTSQSGDEMMSLSEYVSRMKETQ [T11M], which protein stability index is on record?
**A.** 3.07

**Q.** For YHTSQSGDEMPSLSEYVSRMKETQ [T11P], which protein stability index is on record?
**A.** 3.57

**Q.** With YHTSQSGDEMCSLSEYVSRMKETQ [T11C] as the variant, how does the protein stability index read?
**A.** 3.62

**Q.** With YHTSQSGDEMLSLSEYVSRMKETQ [T11L] as the variant, how does the protein stability index read?
**A.** 3.35

**Q.** With YHTSQSGDEMASLSEYVSRMKETQ [T11A] as the variant, how does the protein stability index read?
**A.** 3.51

**Q.** With YHTSQSGDEMDSLSEYVSRMKETQ [T11D] as the variant, how does the protein stability index read?
**A.** 3.81

**Q.** Which protein stability index does the source give for YHTSQSGDEMESLSEYVSRMKETQ [T11E] here?
**A.** 3.9

**Q.** For YHTSQSGDEMTSLSECVSRMKETQ [Y16C], which protein stability index is on record?
**A.** 4.16

**Q.** Which protein stability index does the source give for YHTSQSGDEMTSLSEHVSRMKETQ [Y16H] here?
**A.** 4.1

**Q.** Which protein stability index does the source give for YHTSQSGDEMTSLSEAVSRMKETQ [Y16A] here?
**A.** 4.17

**Q.** For YHTSQSGDEMTSLSEGVSRMKETQ [Y16G], which protein stability index is on record?
**A.** 4

**Q.** Which protein stability index does the source give for YHTSQSGDEMTSLSEEVSRMKETQ [Y16E] here?
**A.** 4.37

**Q.** For YHTSQSGDEMTSLSEFVSRMKETQ [Y16F], which protein stability index is on record?
**A.** 3.49

**Q.** With YHTSQSGDEMTSLSEDVSRMKETQ [Y16D] as the variant, how does the protein stability index read?
**A.** 4.74

**Q.** For YHTSQSGDEMTSLSEKVSRMKETQ [Y16K], which protein stability index is on record?
**A.** 3.53

**Q.** With YHTSQSGDEMTSLSEIVSRMKETQ [Y16I] as the variant, how does the protein stability index read?
**A.** 3.09

**Q.** Which protein stability index does the source give for YHTSQSGDEMTSLSELVSRMKETQ [Y16L] here?
**A.** 3.41

**Q.** Which protein stability index does the source give for YHTSQSGDEGTSLSEYVSRMKETQ [M10G] here?
**A.** 4.1

**Q.** Which protein stability index does the source give for YHTSQSGDETTSLSEYVSRMKETQ [M10T] here?
**A.** 3.73

**Q.** For YHTSQSGDEFTSLSEYVSRMKETQ [M10F], which protein stability index is on record?
**A.** 3.06

**Q.** With YHTSQSGDERTSLSEYVSRMKETQ [M10R] as the variant, how does the protein stability index read?
**A.** 3.9

**Q.** Which protein stability index does the source give for YHTSQSGDEETSLSEYVSRMKETQ [M10E] here?
**A.** 4.54

**Q.** With YHTSQSGDEKTSLSEYVSRMKETQ [M10K] as the variant, how does the protein stability index read?
**A.** 4.04

**Q.** Which protein stability index does the source give for YHTSQSGDEWTSLSEYVSRMKETQ [M10W] here?
**A.** 2.12

**Q.** For YHTSQSGDENTSLSEYVSRMKETQ [M10N], which protein stability index is on record?
**A.** 4.17

**Q.** With YHTSQSGDEITSLSEYVSRMKETQ [M10I] as the variant, how does the protein stability index read?
**A.** 4.08

**Q.** Which protein stability index does the source give for YHTSQSGDELTSLSEYVSRMKETQ [M10L] here?
**A.** 3.32

**Q.** For YHTSQSGDEVTSLSEYVSRMKETQ [M10V], which protein stability index is on record?
**A.** 3.74

**Q.** For YHTSQSGDECTSLSEYVSRMKETQ [M10C], which protein stability index is on record?
**A.** 4.05

**Q.** For YHTSQSGDEATSLSEYVSRMKETQ [M10A], which protein stability index is on record?
**A.** 4.01

**Q.** With YHTSQSGDEDTSLSEYVSRMKETQ [M10D] as the variant, how does the protein stability index read?
**A.** 4.68

**Q.** With YHTSQSGDEHTSLSEYVSRMKETQ [M10H] as the variant, how does the protein stability index read?
**A.** 3.46

**Q.** With YHTSQSGDEPTSLSEYVSRMKETQ [M10P] as the variant, how does the protein stability index read?
**A.** 4.17

**Q.** For YHTSQSGDEQTSLSEYVSRMKETQ [M10Q], which protein stability index is on record?
**A.** 4.05

**Q.** For YHTSQSGDESTSLSEYVSRMKETQ [M10S], which protein stability index is on record?
**A.** 3.87

**Q.** With YHTSQSGDEYTSLSEYVSRMKETQ [M10Y] as the variant, how does the protein stability index read?
**A.** 3.2

**Q.** With YHTSYSGDEMTSLSEYVSRMKETQ [Q5Y] as the variant, how does the protein stability index read?
**A.** 3.21

**Q.** For YHTSQSGDEMTSLMEYVSRMKETQ [S14M], which protein stability index is on record?
**A.** 3.25

**Q.** Which protein stability index does the source give for YHTSQSGDEMTSLWEYVSRMKETQ [S14W] here?
**A.** 1.81

**Q.** With YHTSQSGDEMTSLCEYVSRMKETQ [S14C] as the variant, how does the protein stability index read?
**A.** 3.44

**Q.** For YHTSQSGDEMTSLYEYVSRMKETQ [S14Y], which protein stability index is on record?
**A.** 3.11

**Q.** With YHTSQSGDEMTSLFEYVSRMKETQ [S14F] as the variant, how does the protein stability index read?
**A.** 3.05

**Q.** With YHTSQSGDEMTSLEEYVSRMKETQ [S14E] as the variant, how does the protein stability index read?
**A.** 4.31

**Q.** With YHTSQSGDEMTSLTEYVSRMKETQ [S14T] as the variant, how does the protein stability index read?
**A.** 3.71

**Q.** With YHTSQSGDEMTSLGEYVSRMKETQ [S14G] as the variant, how does the protein stability index read?
**A.** 3.78

**Q.** For YHTSQSGDEMTSLNEYVSRMKETQ [S14N], which protein stability index is on record?
**A.** 3.24

**Q.** With YHTSQSGDEMTSLREYVSRMKETQ [S14R] as the variant, how does the protein stability index read?
**A.** 3.57

**Q.** For YHTSQSGDEMTSLVEYVSRMKETQ [S14V], which protein stability index is on record?
**A.** 3.37

**Q.** Which protein stability index does the source give for YHTSQSGDEMTSLKEYVSRMKETQ [S14K] here?
**A.** 3.5

**Q.** With YHTSQSGDEMTSLDEYVSRMKETQ [S14D] as the variant, how does the protein stability index read?
**A.** 2.96

**Q.** For YHTSQSGDEMTSLPEYVSRMKETQ [S14P], which protein stability index is on record?
**A.** 3.74

**Q.** For YHTSQSGDEMTSLLEYVSRMKETQ [S14L], which protein stability index is on record?
**A.** 2.65

**Q.** For YHTSQSGDEMTSLAEYVSRMKETQ [S14A], which protein stability index is on record?
**A.** 3.66

**Q.** For YHTSQSGDEMTSLQEYVSRMKETQ [S14Q], which protein stability index is on record?
**A.** 3.54
